# Test results: the nanobody polyreactivity screen of Harvey et al. (2022)
# Test: yeast display, Sf9 membrane polyspecificity reagent, FACS + sequencing; frameworks hold sequencing errors
# In short: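 Polyreactivity labels are assigned by the sorting gate from which each nanobody was recovered. The gates were low and high (top ~1%), set on anti-HA fluorescence for expression and streptavidin fluorescence for reagent binding. Before sorting, galactose-induced (36–48 hours) yeast display cells were stained for 1 hour at 4 °C with 10% biotinylated, detergent-solubilized Sf9 membrane reagent.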
row,Sequence,polyreactivity (PSR sort gate)
1,QVQLVEAGGGLVQAGGSLRLSCAASGRTFYQNAMGWNIQAPGKERELVAAISRSGGSTYYADSVKGRFTISRDNAKITVYLQMTSLKPEDTAVYYCAADPRSYGGGYDYWGQGTQVTVSS,high polyreactivity
2,QVQLVESGGGLVQAGGSLRLSCAASGRTFYSYTMGWYRQAPGKERELVAAINRGGSTYYADSVKWRFTISRDNAKNTVYLQMNSLKPEDTAVYYCNADNWVYLYDYWGQGTQVTVSS,low polyreactivity
3,QVQLVESGGGLVQAGGSLRLSCGASGLTFAYYAMRWYRQAPGKERELVAAISSSGRSTYYADSVKGRFTISRDNAKNTVYLQMNSLTEEDTAVSYCDKVGPWYYWERDYWGQCTQVTVSS,high polyreactivity
4,QVLLVESGGGLVQAGGSLRLSSAASGSTYRNAMGWYRQAPGKERELVAAISSSGGRTYYADSVKGRFTISRDNAKNTVYLQMNSLKPDDTAVYYCAAPRFAAPSRIGYDWGQGTQVTVSS,high polyreactivity
5,QVQLVESGGGLVQAGGILRLSCAPSGRTLPPNAMGWYRHAPGKERELFAGSTWSGGSTYYADSVKGRFTISRDNAKNTVYLPMNSLKPEVTAVYYCAASRSFPGYGLYYYWGQGTQVTVSS,low polyreactivity
6,QVQLVESGGGLVQAGGSLRLICAASGRIFKYNAMGWDRQAPGTERELVAAISSSGGSTYYADSVKGRFTISRDNAKYTVYLLMNSLKPEDTAVYYCAARFNSGVYRYDYWGQGTQVTVSS,high polyreactivity
7,QVQLVESGGGLVQAGGSLRLSCAASGGTFSYNAMGWYRQAPGKERELVAAISWSGTRTYYADSVKGRFTISRDNAKNTVYLQMNSLKPEDTAVYYCNKPPPNRGRYDYWGQGTQVTVSS,low polyreactivity
8,QVQLVESGGGLVQAGGSLRLSCAASGSIFYDYAMGWYRQAPGKERELVAAISGRGGSTYYADSVKGRFTISRDNAKNTVYLQMNSLKPEDTAVYYCAARYRYRFLDRYNYWGQGTQVTVSS,high polyreactivity
9,QVQLVESGGGLVQAGGSLRLSCAASGRIFYTYAMGWYRQSPGKERELVAAISWGGGRTYYADSVKGRFTISRDNAKNTVYLQMNSLKPEDTAVYYCNAVSLKFTRKYDYWGQGTQVTVSS,high polyreactivity
10,QVQLVESGGGLVQAGGSLRLICAASGITFSYYALGRSRQAPGKERELVAAISVTGGSTYYADSVKGRFTISRDNAKNTVYLQMNSLKPEDTAVYYCAADSYYYDGDYWGQGTQVTVSS,high polyreactivity
11,QVQLVESGGGLVQAGGSLRLSCAASGRIFTNYAMGWYRQAPGKERELVAAINWDGGSTYYADSVKGRFTISRDNAKNTVYLQMNSLKPVDTAVYYCAAQGGLSEYDYWGQGTQVTVSS,low polyreactivity
12,QVQLVESGGGIVQAGGSLRLSCAASGFTFGSYAMGWYRQAPGKEREFVAAIRRSGSSTYYADSVKGRFTISRDNAKNTVYLQMNSLKPEDTAVYYCAADVYRRLRRYRYYYWGQGTQVTVSS,low polyreactivity
13,QMQLQESGGGLVQAGGSQRLSCAASDSISIGAGMGWYRQAPGKERELVAGISVGTSTNYADSVNGRFTISRVNAKNTVYLQMNSLKPEDTAVYYCAKGYRRVYGPFYYWGQGTQVTVSS,low polyreactivity
14,QVQLVESGGGLVQAGGSHRLSCAACGYIFFYNAMGWYRQAPGKERELVASITYRGGSTYYADSVKGRFTISRDNAKNSVYLQMNSLKPEDTAVYYCNVDGGGPLGPQGFPFDYWGQGTQVTVSS,low polyreactivity
15,QVQLVESGGGLVQAGGSLRLSCAASGRISKIYAMGWYRQAPGKERELVAAINSGGSTNYADSVKGRFTISRDNAKNTVYLQLNSLKPEDTAVYYCAATFKSGMDYWGQGTQVTVSS,high polyreactivity
16,QVQLVESGGGLVQAGGSLRLSCAASGNTFTKYAMGWYIQAPGKERELVAGITRGGSTNYADSVKGRFTISRDNAKNTVYLQMNSLKPEDTAVYYCNARPVYGSRFYSAVRMEYWGQGTPVTVSS,low polyreactivity
17,QVQLVDSGGGLVQAGPSLRLSCAASGSTFYLYAMGWYRQAPGKERELVAAITFRGSRTYYADSVKGRFTISRDNAKNTVYFQMNSLKPEDTAVYYCAADSYIERAYGSLGVWRYDYWGQGTQVTVSS,low polyreactivity
18,QVQLVESGGGLVQAGGSLRLSCAASGFTFSRNVMGWYRQAPGKERELVADITLSGASTYYADSVKGRFTISRDNAKNTVYLQMNSLKPEDTAVYYCAADPYHWRWGWRLDYWGQGTQVTVSS,low polyreactivity
19,QVQLVESGGGLVQAGGSLRLNCAASGSIFDDYAMGWYRQAPGKERELVAAINIRTGSTYYADSEKGRFTISRDNAKNTVYLQMNSLKPEDTAVYYCNSVVRGFVRHLDYWGQGTQVTVSS,low polyreactivity
20,QVQLVESGGGLVQAGGSLRLSCAASGFTFDRYAMGWYRQAPGKERELVAAISRSGGSTHYADSVKGRFTISRDNAKNTVYLQMNSLKPEDTAVYYCNKRWFYDGYDYWGQGTQVTVSS,high polyreactivity
21,QVQLVESGGGLVQAGGSLRLSCAASGNIFPYYPMGWYRQAPGKERELVASISRSGGSTYYADSVKGRFTISRDNAKNTVYLQMNSLKPEDTAVYYCAKRTPYYGFGFFHPARGYGYWGQGTQVTVSS,low polyreactivity
22,QVQLVESGGGLVHAGGSLRLSCAASGSIFRVYTMGWYRQAPGKERELVAAISRSGGRTYYADSVKGRFTISRDNAKNTVYLQMNSLKPEDTAVYYCATRPKVAYEYDYWGQGTQVTVSS,high polyreactivity

row,Sequence,polyreactivity (PSR sort gate)
1,QVQLVESVGGLVQAGGSLRLSCAASGSTFKGYYMGWYRQAPGKERELVAAIDSGGSTYYADSVKGRFTISRDNAKNTVYLQMNSLNPVDTAVYYCAATGQDTYGLDVVDEYDYWGQGTKVTVSS,low polyreactivity
2,QVQLVESGGGLFQAGGSLRLSCAASGSSFPFYAMGWYRQAPGKERELVASISSGGSTNYADSVKGRFTISRDNAKNTVYLQMNSLKPEDTAVYYCNADVPYRWDTWFQVVYPESYDYWGQGTQVTVSS,low polyreactivity
3,QVQLVESGGGLVQAGGSLRLSCAASGRIFVSNAMGWYRQAPGKERELVASISWSGGSTYYADSVKGRFTISRDNAKNTVYLQMNSLKPEDTAVYYCNRVRYPRQGFRLYYWGQGTQVTVSS,high polyreactivity
4,QVQLVESGGGLVQAGGSLRLSCAASGYTFPFYTMGWYRQAPGKERELVAAINSGGSTYYADSVKGRFTISRDNAKNTVYLQMNSLKPEDTAVYYCGAGRHSEDNYWGQGTQVTVSS,high polyreactivity
5,QVQLVESGGGLVQAGGSLRLSCAASGFIFYRNAMGWYRQAPGKERELVAAISQRGGRTYADSVKGRFTISRDNAKNTVYLQMNSLIPEDTAVYYCAADYLDSTYGYVYGWDDYWGQGTQVTVSS,low polyreactivity
6,QVQLVESGGGLVQAGGSLRLSCASSGRIFGVYAMGWYRQAPGKERELVAAITRGASTYYADSVKGRFTISRDNAKNTVYLQMNSLKPEDTAVYYCAVSQHRGIYRKYDYWGQGTQVTVSS,high polyreactivity
7,QVQLVESGGGLVQAGGSLRISCAASGFTFKAYAMGWYRLAPGKERELVAAITKSGGRTFYADSVKGRFTISRDNAKNTVYLQMNSLKPEDTAVYYCAASYTVYYWGQGTQVTVSS,high polyreactivity
8,QVQLVESGGGLVQAGGSLRLSCAASGFIFTGNVMGWYRQAPGKERELVAAITSSGGSTYYADSVKGRFTISRDNAKNTVYLQMNSLKPEDTAVYYCATRYGGRYYWGQGTQVTVSS,high polyreactivity
9,QVQLVESGGGLVQAGGSLRLSCAASGSTFTYNDMGWYRQAPGKERELVARITFSSGRTYYADSVKGRFTISRDNAKNTVYLQMNSLKPEDTAVYYCARQWYWRPGYYIGQGYEYWGQGTQVTVSS,low polyreactivity
10,QVQLVESGGGLVQAGGSLRLSCAASGIILIQNSMGWSRHAPGKERELVAAISTRGGRTYYADSVKGRFTISRDNAKNTVYLQMNSLKPEDTAVYYCAAYRTTPYRDYKMDYWGQGTQVTVSS,high polyreactivity
11,QVQLVESGGGLVQAGGSLRLSCAASGSTFSDYAMGWYRQAPGKERELVAAISRRGGSTYYADSVKGRFTISRDNAKNTVYLQMNSLKPEDTAVYYCAKAAYPWTRMEYWGQGTQVTVSS,high polyreactivity
12,QVQLVESGRGLVQAGGSLRLSCAASGSIFGGYGMGWYRQAPGKERELVAAITSGSSTYYADSVKGRFTISRDNAKNTVYLQMNSLKPEDTAVYYCAARPYPHSAYEGDYWGRGTQVTVSS,low polyreactivity
13,QVQHVESGGGLVQAGGSLRLSCAASGSIFEDYVMGWYRQAPGKERELVADITSGGTTYYADSVKGRFTISRDNAKNTVYLQMNSLKPEDTAVYYCAAEVDWVPFLLDYWGQGTQVTVSS,low polyreactivity
14,QVQLVESGGGLVQAGGSLRLSCAASGLTLKYYAMGWYRQAPGKERELVAAITYSGGSTYYADSVKGRFTFSRDNAKNTVYLQMNSLIPEDTAVFYCNAGPSVTSGYDYDYWGQGTQVTVSS,low polyreactivity
15,QVQLVESGGGLVQAGGSLRLSCAASGRTFASYDMGWYRQEPGKERELVAAISVSGDSTYYADSVKGRFTISRDNAKNTFYLQMNSLKPEDTAVYYCNAEAQDYDHDYWGQSTQVTVSS,low polyreactivity
16,QVQLVESGGGLVQAGGSLRLSCPASGITVTAYAMGWYRQAPGKERELVATINSTGITNYADSVKGRFTISRDNAKNTVYLQMNSLKPEDTAVYYCAADLMDSSSYDGMDYWGQGTQVTVSS,low polyreactivity
17,QVQLVESGGGLVQAGGSLRLSCAASGRIFFSYAMGWYRQAPGKERELVAAISRSGGRTYYADSVKGRFTISRDNAKNTVYLQMNSLKPEDTAVYYCAASSISSLYYDYWGQGTQVTVSS,high polyreactivity
18,QVQLVESGGGLVQAGGSLRLSCVASGRIFWANAIGWYRQAPGKERELVAAITYSGGTTYYADSVKGRFTISRDNAKNTVYLQMNSLKPEATAVYYCAKVGRGNNYWGQGTQVTVSS,high polyreactivity
19,QVQHVESGGGLVQAGGSLRLSCAASGFIFDFNAMGRYRPPPGKERELVATISSDGSTNYADSVKGRFTISRDNAKNTVYLQMNSLKPEDTAVYYCNKDSHKDAGTLPGWWYDYWGQGTQVTVSS,low polyreactivity
20,QVQLVESGGGLVQAGGSLRLSCAASRLTFQDYAMGWYRQAPGKERELVAGISRSGGRTNYADSVKGRFTISRDNAKNTVYLQMNSLKPEDTAVYYCATPYRRLNTWIYDYWGQGTQVTVSS,high polyreactivity
21,QVQLVESGGGLVQAGGSLRVSCAASGRTFYFNAMGWYRQAPGKERELVAVISWSGGRTYYADSVKGRFTISRDNAKNTVYLLMNSLKPEDTAVYYCAADYQSGGSRYDYWGQGTQVTVSS,high polyreactivity
